# In PMC10104900 (The Journal of Clinical Investigation, 2023):
# Columns and labels:
# [1] = target: recombinant FL spike B.1.351 Beta, stabilized by 2P mutations (SARS-CoV-2, B.1.351 Beta, strain)
# [2] = target: recombinant FL spike B.1.1.7 Alpha, stabilized by 2P mutations (SARS-CoV-2 B.1.1.7 Alpha, strain)
# [3] = target: recombinant FL spike P.1 Gamma, stabilized by 2P mutations (SARS-CoV-2, P.1 Gamma, strain)
# [4] = target: recombinant FL spike B.1.617.2 Delta, stabilized by 2P mutations (SARS-CoV-2, B.1.617.2 Delta, strain)
# [5] = target: T1, recombinant FL spike WT-6P (SARS-CoV-2 WT (Wuhan-Hu-1), UniProt P0DTC2, stabilised, biotin (EZ-Link Sulfo-NHS-Biotin) in the BLI experiments); test: ELISA; settings: both partners purified
# [6] = target: T1, recombinant FL spike WT-6P; test: BLI; settings: both partners purified
Binder,binding result [1],binding result [2],binding result [3],binding result [4],binding result [5],binding result [6]
"S626-161 (antibody, V domains shown) VH: QLQLQESGPGLVKPSEALSLTCTVSGGSISTSNYYWGWIRQPPGKGLEWIGSIYYRGGTHYNPSLKTRVTISVDTSKNQFSLKLSSVTAADTAVYYCARHTYFYDIVGAAVWEPFDIWGQGTMVTVSS VL: not shown",binds,binds,binds,binds,–,–
"S451-1140 (antibody, V domains shown) VH: EVQLVESGGGLVPPGGSLRLSCAASGFIFSNYAMTWVRQAPGKGLEWVSAISGGGGSTDYADSVKGRFTISRDNSKNTLYLQMNSLRAEDTAVYYCAKDLFGSGWSLFDNWGQGTLVTVS VL: not shown",binds,binds,binds,binds,–,–
"S728-1157 IgG (antibody, V domains shown, copies: 2 + 2) VH: EVQLVESGGGLVQPGGSLRLSCAASGLLVSRNYMNWVRQAPGKGLEWVSIIYSGGSTFYADSVEGRFTISRDESKNTLYLQMNSLRTDDTAVYYCARDLSDYGGIDCWGQGTLVTVSS VL: YELTQPLSVSMALGQTARISCGGDNVGSQNVHWYQQRPGQAPVLVIYRDSNRPSGIPERFSGSKSGNTATLTISRAQAGDEADYYCQVWDSSTVAFGGGTKLTVL",–,–,–,–,binds,–
"S728-1157 Fab (Fab, V domains shown) VH: EVQLVESGGGLVQPGGSLRLSCAASGLLVSRNYMNWVRQAPGKGLEWVSIIYSGGSTFYADSVEGRFTISRDESKNTLYLQMNSLRTDDTAVYYCARDLSDYGGIDCWGQGTLVTVSS VL: YELTQPLSVSMALGQTARISCGGDNVGSQNVHWYQQRPGQAPVLVIYRDSNRPSGIPERFSGSKSGNTATLTISRAQAGDEADYYCQVWDSSTVAFGGGTKLTVL",–,–,–,–,–,binds
